Experimental data reported in US20260250338A1.

Biological target: CD16aF allelic variant of CD16a expressed on Jurkat cells (human) (UniProt P08637)
Test: flow cytometry on Jurkat cells expressing CD16aF, conditions as in Example 2

Chain of CD16aF allelic variant of CD16a expressed on Jurkat cells (human) (P08637 17-254, change not shown): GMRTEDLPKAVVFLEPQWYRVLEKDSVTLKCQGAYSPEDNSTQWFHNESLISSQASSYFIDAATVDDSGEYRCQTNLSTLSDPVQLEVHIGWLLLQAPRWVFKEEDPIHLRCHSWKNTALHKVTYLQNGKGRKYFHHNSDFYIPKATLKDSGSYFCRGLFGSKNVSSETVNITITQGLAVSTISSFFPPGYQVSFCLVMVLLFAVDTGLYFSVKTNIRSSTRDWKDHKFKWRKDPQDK

B1: Construct 25 (SEQ ID NO: 94), CD117 × CD16a, CD117 binder SEQ ID NO: 84 N-terminal of DARPin #7 (designed binder)
chain: MRGSHHHHHHGSDLGQKLLKAAQYGQDDEVRILLAAGADVNAKDWAGKTPLHVAAEAGHLEIVEVLLKAGADVNAKDKAGETPLHLAAEQGHLEIVEVLLKAGADVNAQDEWGQTPADLAAYYGLEDIAEVLQKAAGSPTPTPTTPTPTPTTPTPTPTGSDLGQKLLRAAKKGQDDEVRELLKAGADVNAKDEQGWTPLHNAAWKGHLEIVEVLLKAGADVNAKDVFDWTPLHVAAHFGHLEIVEVLLKAGADVNAQDRAGETPADLAAQAGHEDIAEVLQKAA
B1 was tested. Which EC50 did it give?
Its EC50 is 23.2 nM.
